# Reference: patent US20050048070A1 (published 2005)
# B1: human monoclonal IgM antibody COU-1 (antibody, V domains shown)
# VH: GAEVKKPGASVKVSCKASDYTFSSYYMHWVRQAPGQGLEWMGIINPSGGSTSYAQKFQGRVTMTRDTSTNTVYMELSSLRSEDTAVYYCARDQVVVAATLSNYGMDVWGQGTTVTVSS
# VL: ELTQSPGTLSLSPGERATLSCRASQSVSSSYLAWYQQKPGQAPRLLIYDASNRATGIPARFSGSGSGTDFTLTISSLEPEDFAVYYCQQGTNWGIAFGQGTRLDIKR
# notes: Human IgM with kappa light chain, secreted by hybridoma B9165 (ECACC 87040201), purified from culture supernatant; also called HMab COU-1; HuMab COU-1
# Tests used:
# [1] = biological target: T1, K8(1-233)/K18(1-72) heterotypic complex (human, UniProt P05787 2-234; P05783 2-73); test: heterotypic association assay: blotted K18 proteins incubated with purified K8(1-233), then stained with COU-1
# T1 construct: Heterotypic complex of two GST fusion proteins; not shown: glutathione S-transferase (GST) fusion partner, modified pGEX-2T vector
# T1 sequence 1: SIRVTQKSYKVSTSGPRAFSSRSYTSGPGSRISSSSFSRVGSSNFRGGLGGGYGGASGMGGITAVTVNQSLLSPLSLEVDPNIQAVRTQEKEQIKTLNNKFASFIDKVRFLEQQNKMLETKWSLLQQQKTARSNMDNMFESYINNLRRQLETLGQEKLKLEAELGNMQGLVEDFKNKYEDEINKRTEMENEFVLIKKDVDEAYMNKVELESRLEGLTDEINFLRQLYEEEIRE
# T1 sequence 2: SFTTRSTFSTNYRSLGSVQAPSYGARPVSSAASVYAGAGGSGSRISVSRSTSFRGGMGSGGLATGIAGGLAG
# [2] = biological target: T2, intact K8, native (band 1 of cytokeratin purified from colon cancer tissue; K8 in fixed cancer cells) (human, UniProt P05787 2-483, N-terminally blocked); test: strips of a PVDF blot of SDS-PAGE-separated cytokeratin purified from colon cancer tissue
# T2 construct: Natural protein, no tag; also called normal K8; cytokeratin 8
# T2 chain: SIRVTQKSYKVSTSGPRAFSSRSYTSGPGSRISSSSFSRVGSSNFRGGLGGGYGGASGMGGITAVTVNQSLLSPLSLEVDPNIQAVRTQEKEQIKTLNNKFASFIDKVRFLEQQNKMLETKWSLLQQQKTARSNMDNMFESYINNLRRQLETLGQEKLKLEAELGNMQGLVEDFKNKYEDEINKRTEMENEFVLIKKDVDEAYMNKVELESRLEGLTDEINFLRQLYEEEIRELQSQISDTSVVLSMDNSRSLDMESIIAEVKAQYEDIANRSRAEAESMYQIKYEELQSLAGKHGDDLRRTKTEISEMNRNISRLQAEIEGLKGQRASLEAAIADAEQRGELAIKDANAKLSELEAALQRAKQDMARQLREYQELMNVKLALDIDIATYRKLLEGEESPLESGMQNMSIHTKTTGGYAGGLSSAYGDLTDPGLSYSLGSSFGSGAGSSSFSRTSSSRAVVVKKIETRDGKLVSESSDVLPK
# [3] = biological target: T3, intact K18, native (band 3 of cytokeratin purified from colon cancer tissue; K18 in fixed cancer cells) (human, UniProt P05783 2-430, acetylated serine at its N-terminus); test: as above
# T3 construct: Natural protein, no tag; also called normal K18; cytokeratin 18
# T3 sequence: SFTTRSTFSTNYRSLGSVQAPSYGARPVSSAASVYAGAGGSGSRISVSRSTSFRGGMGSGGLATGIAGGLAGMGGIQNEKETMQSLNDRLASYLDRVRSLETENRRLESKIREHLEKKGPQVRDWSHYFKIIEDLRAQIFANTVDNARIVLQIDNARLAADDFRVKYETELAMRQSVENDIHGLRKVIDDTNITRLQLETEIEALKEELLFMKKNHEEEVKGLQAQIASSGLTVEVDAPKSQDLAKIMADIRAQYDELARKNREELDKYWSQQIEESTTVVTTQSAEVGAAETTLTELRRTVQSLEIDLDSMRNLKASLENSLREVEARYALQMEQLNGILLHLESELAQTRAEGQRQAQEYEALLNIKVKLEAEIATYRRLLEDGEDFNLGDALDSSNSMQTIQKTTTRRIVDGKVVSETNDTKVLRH
# ovalbumin = biological target: T4, ovalbumin (UniProt P01012 2-386); test: ELISA on coated antigens (data not shown)
# T4 construct: Irrelevant antigen in the ELISA
# T4 sequence (looked up): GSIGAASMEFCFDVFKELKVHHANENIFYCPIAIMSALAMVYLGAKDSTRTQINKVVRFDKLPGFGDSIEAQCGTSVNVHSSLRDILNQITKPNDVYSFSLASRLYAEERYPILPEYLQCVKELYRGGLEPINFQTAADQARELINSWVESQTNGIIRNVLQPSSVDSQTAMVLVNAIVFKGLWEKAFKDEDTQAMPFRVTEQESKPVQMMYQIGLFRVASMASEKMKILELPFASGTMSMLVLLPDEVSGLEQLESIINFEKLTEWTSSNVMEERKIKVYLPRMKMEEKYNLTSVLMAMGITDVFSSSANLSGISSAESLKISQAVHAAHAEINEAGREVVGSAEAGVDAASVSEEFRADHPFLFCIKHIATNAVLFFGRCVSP
# bovine serum albumin = biological target: T5, bovine serum albumin (bovine, UniProt P02769 25-607); test: ELISA on coated antigens (data not shown)
# T5 construct: Irrelevant antigen in the ELISA; also called BSA
# T5 sequence (P02769 25-607 limits assumed): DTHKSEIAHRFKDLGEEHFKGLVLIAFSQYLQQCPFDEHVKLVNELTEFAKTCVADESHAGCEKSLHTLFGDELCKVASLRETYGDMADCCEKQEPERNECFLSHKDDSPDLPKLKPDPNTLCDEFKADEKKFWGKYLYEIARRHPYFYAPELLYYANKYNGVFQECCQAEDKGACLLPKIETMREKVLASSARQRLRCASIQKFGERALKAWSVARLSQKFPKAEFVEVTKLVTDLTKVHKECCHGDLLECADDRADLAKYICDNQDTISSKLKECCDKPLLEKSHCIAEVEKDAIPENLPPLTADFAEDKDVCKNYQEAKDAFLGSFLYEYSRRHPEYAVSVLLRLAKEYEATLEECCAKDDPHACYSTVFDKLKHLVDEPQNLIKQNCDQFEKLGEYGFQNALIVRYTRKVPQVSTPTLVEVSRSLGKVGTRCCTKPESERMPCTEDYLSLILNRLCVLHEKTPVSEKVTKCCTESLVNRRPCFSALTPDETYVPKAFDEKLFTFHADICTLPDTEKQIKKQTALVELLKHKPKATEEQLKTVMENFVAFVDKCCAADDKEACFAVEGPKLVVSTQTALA
# [4] = biological target: T6, cleaved K8/K18 heterotypic complexes from adenovirus-infected HeLa cells (human, UniProt P05787 2-483; P05783 75-430, limits assumed); test: Western blot of cytokeratin purified from adenovirus-infected HeLa cells (data not shown)
# T6 construct: also called cytokeratin from HeLa cells infected with adenovirus
# T6 chain 1: T2 chain
# T6 chain 2: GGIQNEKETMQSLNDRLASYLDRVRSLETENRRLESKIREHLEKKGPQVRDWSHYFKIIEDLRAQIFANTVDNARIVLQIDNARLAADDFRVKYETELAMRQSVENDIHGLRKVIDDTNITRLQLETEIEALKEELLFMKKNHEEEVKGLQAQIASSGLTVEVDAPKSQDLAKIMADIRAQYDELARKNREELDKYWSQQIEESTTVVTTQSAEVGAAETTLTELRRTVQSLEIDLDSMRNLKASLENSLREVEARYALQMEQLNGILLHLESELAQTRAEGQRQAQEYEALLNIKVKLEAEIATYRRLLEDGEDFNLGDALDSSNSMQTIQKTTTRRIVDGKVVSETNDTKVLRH
# [5] = biological target: T7, K8(1-85)/K18(1-124) heterotypic complex (human, UniProt P05787 2-86; P05783 2-125); test: heterotypic association assay: blotted K8 proteins incubated with purified K18(1-124), then stained with COU-1
# T7 construct: Heterotypic complex of two GST fusion proteins; not shown: glutathione S-transferase (GST) fusion partner, modified pGEX-2T vector
binder,measurement,setting,value
B1,binding result,[1],no binding (tested: 5 µg/ml COU-1 (P-0285))
same,binding result,[2],no binding (tested: 5 µg/ml COU-1 (P-0279))
same,binding result,[3],no binding (tested: 5 µg/ml COU-1 (P-0279))
same,binding result,ovalbumin,no binding
same,binding result,bovine serum albumin,no binding
same,binding result,[4],no binding
same,binding result,[5],no binding (tested: 5 µg/ml COU-1 (P-0285))
